Experimental findings from the supplement of paper PMC9112550, “Optimization of the antimicrobial peptide Bac7 by deep mutational scanning” (BMC Biology, 2022) are described below.
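Also: peptides expressed intracellularly from a pBAD plasmid library in pooled LB shake-flask culture, induced with 0.3% L-arabinose, DNA abundance read by NGS, three biological replicates, DESeq2 with apeglm shrinkage.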

The data set deals with Escherichia coli TOP10. The data set can be described thus: shrunken log2 fold change of peptide-encoding DNA abundance (4.5 h post-induction vs induction); higher = less antimicrobial activity (less host growth inhibition). As to conditions: time post-induction: 4.5 h; library: site-saturation at positions 5, 18, 19, 20.
Take RRIRVRPPRLPRPRPRPKWDPRP: the “shrunken log2 fold change” value was determined as 0.0182.

Turning to RRIRWRPPRLPRPRPRPAQQPRP, the “shrunken log2 fold change” value is -0.00145.

For the sequence RRIRTRPPRLPRPRPRPIYYPRP, the “shrunken log2 fold change” value was -0.818.

On to RRIRCRPPRLPRPRPRPYAAPRP, for which the “shrunken log2 fold change” value was -0.269.

Turning to RRIRYRPPRLPRPRPRPVKVPRP, the “shrunken log2 fold change” value is 0.0182.

For RRIRCRPPRLPRPRPRPQGYPRP, the “shrunken log2 fold change” value was -0.0448.

RRIRDRPPRLPRPRPRPRGSPRP: the “shrunken log2 fold change” value was 0.255.

As for RRIRSRPPRLPRPRPRPLKAPRP, the “shrunken log2 fold change” value is -0.234.

Turning to RRIRCRPPRLPRPRPRPIIIPRP, the “shrunken log2 fold change” value was -0.816.

Consider RRIRYRPPRLPRPRPRPKLLPRP, for which the “shrunken log2 fold change” value was -0.296.

RRIRGRPPRLPRPRPRPALFPRP: the “shrunken log2 fold change” value came out at 1.23.

For the sequence RRIRVRPPRLPRPRPRPNMFPRP, the “shrunken log2 fold change” value was -0.103.

Consider RRIRDRPPRLPRPRPRPMVYPRP, for which the “shrunken log2 fold change” value came to 0.225.

Turning to RRIRARPPRLPRPRPRPYRYPRP, the “shrunken log2 fold change” value was -0.274.

Take RRIRYRPPRLPRPRPRPQEIPRP: the “shrunken log2 fold change” value was -0.507.

In the case of RRIRWRPPRLPRPRPRPLEYPRP, the “shrunken log2 fold change” value was -0.152.

In the case of RRIRHRPPRLPRPRPRPRQIPRP, the “shrunken log2 fold change” value was -0.0442.

With RRIRNRPPRLPRPRPRPWRPPRP, the “shrunken log2 fold change” value worked out at 0.337.

For RRIRPRPPRLPRPRPRPFPKPRP, the “shrunken log2 fold change” value is 0.166.

For RRIRTRPPRLPRPRPRPRINPRP, the “shrunken log2 fold change” value is -0.506.

As for RRIRDRPPRLPRPRPRPTDHPRP, the “shrunken log2 fold change” value was -0.0425.

In the case of RRIRQRPPRLPRPRPRPWGTPRP, the “shrunken log2 fold change” value is -0.239.

Consider RRIRMRPPRLPRPRPRPGAFPRP, for which the “shrunken log2 fold change” value came to 0.611.

For RRIRQRPPRLPRPRPRPLFKPRP, the “shrunken log2 fold change” value is -0.387.

RRIRKRPPRLPRPRPRPSDTPRP: the “shrunken log2 fold change” value was found to be 0.322.

Turning to RRIRFRPPRLPRPRPRPCMEPRP, the “shrunken log2 fold change” value was -0.105.

Consider RRIRGRPPRLPRPRPRPEYKPRP, for which the “shrunken log2 fold change” value is 0.375.

Consider RRIRCRPPRLPRPRPRPKKQPRP, for which the “shrunken log2 fold change” value was 0.155.

For the sequence RRIRHRPPRLPRPRPRPCGQPRP, the “shrunken log2 fold change” value was determined as 0.015.

For RRIRKRPPRLPRPRPRPFMTPRP, the “shrunken log2 fold change” value came out at 0.168.

As for RRIRCRPPRLPRPRPRPHQGPRP, the “shrunken log2 fold change” value is -0.0624.

For the sequence RRIRGRPPRLPRPRPRPENWPRP, the “shrunken log2 fold change” value was found to be 0.594.

Take RRIRYRPPRLPRPRPRPHLSPRP: the “shrunken log2 fold change” value was -0.235.

Take RRIRTRPPRLPRPRPRPCWWPRP: the “shrunken log2 fold change” value came out at 0.636.

For RRIRCRPPRLPRPRPRPMHKPRP, the “shrunken log2 fold change” value is -0.203.

RRIRVRPPRLPRPRPRPEPNPRP: the “shrunken log2 fold change” value came out at 0.19.

Regarding RRIRKRPPRLPRPRPRPGRQPRP, the “shrunken log2 fold change” value turned out to be 0.143.

Regarding RRIRGRPPRLPRPRPRPWTTPRP, the “shrunken log2 fold change” value came out at 0.00743.

Consider RRIRSRPPRLPRPRPRPANQPRP, for which the “shrunken log2 fold change” value is -0.116.

Take RRIRTRPPRLPRPRPRPPWEPRP: the “shrunken log2 fold change” value stood at 0.506.

RRIRFRPPRLPRPRPRPKHGPRP: the “shrunken log2 fold change” value was determined as 0.405.

With RRIRIRPPRLPRPRPRPEKLPRP, the “shrunken log2 fold change” value is -0.048.

For RRIRWRPPRLPRPRPRPGNNPRP, the “shrunken log2 fold change” value came out at 0.1.

Turning to RRIRDRPPRLPRPRPRPLMSPRP, the “shrunken log2 fold change” value is 0.101.

On to RRIRIRPPRLPRPRPRPFIRPRP, for which the “shrunken log2 fold change” value is -0.358.

For RRIRERPPRLPRPRPRPESNPRP, the “shrunken log2 fold change” value was -0.65.

Turning to RRIRMRPPRLPRPRPRPRQFPRP, the “shrunken log2 fold change” value turned out to be 0.582.

Turning to RRIRLRPPRLPRPRPRPYKLPRP, the “shrunken log2 fold change” value is -0.0961.

For the sequence RRIRDRPPRLPRPRPRPMWLPRP, the “shrunken log2 fold change” value was determined as 0.015.

As for RRIRKRPPRLPRPRPRPDKWPRP, the “shrunken log2 fold change” value is 0.429.

On to RRIRNRPPRLPRPRPRPWWSPRP, for which the “shrunken log2 fold change” value came out at 0.0428.

Consider RRIRYRPPRLPRPRPRPSMAPRP, for which the “shrunken log2 fold change” value is -0.572.

Consider RRIRPRPPRLPRPRPRPILNPRP, for which the “shrunken log2 fold change” value is -0.339.

Take RRIRHRPPRLPRPRPRPCHPPRP: the “shrunken log2 fold change” value is -0.01.

As to RRIRVRPPRLPRPRPRPFYMPRP, the “shrunken log2 fold change” value is -0.136.

As to RRIRFRPPRLPRPRPRPCPNPRP, the “shrunken log2 fold change” value is 0.044.

For the sequence RRIRDRPPRLPRPRPRPGHDPRP, the “shrunken log2 fold change” value amounted to 0.207.

On to RRIRDRPPRLPRPRPRPECRPRP, for which the “shrunken log2 fold change” value was found to be 1.03.

RRIRQRPPRLPRPRPRPRSNPRP: the “shrunken log2 fold change” value is -0.108.

Take RRIRQRPPRLPRPRPRPFRFPRP: the “shrunken log2 fold change” value is 0.0421.

Consider RRIRYRPPRLPRPRPRPLEEPRP, for which the “shrunken log2 fold change” value is -0.0801.

Regarding RRIRYRPPRLPRPRPRPASSPRP, the “shrunken log2 fold change” value is -0.0244.

Regarding RRIRFRPPRLPRPRPRPWPKPRP, the “shrunken log2 fold change” value was determined as 0.125.

For the sequence RRIRFRPPRLPRPRPRPVIKPRP, the “shrunken log2 fold change” value was -0.339.

As for RRIRNRPPRLPRPRPRPSTPPRP, the “shrunken log2 fold change” value was -0.103.

As to RRIRFRPPRLPRPRPRPKSRPRP, the “shrunken log2 fold change” value was -0.0938.

As to RRIRTRPPRLPRPRPRPCGDPRP, the “shrunken log2 fold change” value worked out at 0.176.

With RRIRLRPPRLPRPRPRPFMLPRP, the “shrunken log2 fold change” value is -0.356.

As to RRIRARPPRLPRPRPRPDLFPRP, the “shrunken log2 fold change” value stood at 1.09.

For RRIRKRPPRLPRPRPRPWHVPRP, the “shrunken log2 fold change” value is -1.06.

For RRIRFRPPRLPRPRPRPDVPPRP, the “shrunken log2 fold change” value is -0.356.

With RRIRRRPPRLPRPRPRPEKIPRP, the “shrunken log2 fold change” value was 0.164.

As for RRIRDRPPRLPRPRPRPKMAPRP, the “shrunken log2 fold change” value turned out to be 0.38.

In the case of RRIRPRPPRLPRPRPRPLCFPRP, the “shrunken log2 fold change” value worked out at 0.354.

Take RRIRCRPPRLPRPRPRPEPTPRP: the “shrunken log2 fold change” value was determined as 0.628.

As for RRIRQRPPRLPRPRPRPKHWPRP, the “shrunken log2 fold change” value was determined as 0.0984.

For the sequence RRIRYRPPRLPRPRPRPMHVPRP, the “shrunken log2 fold change” value stood at 0.214.

Regarding RRIRYRPPRLPRPRPRPQFGPRP, the “shrunken log2 fold change” value turned out to be 0.03.

Take RRIRFRPPRLPRPRPRPEIFPRP: the “shrunken log2 fold change” value was -0.139.

With RRIRPRPPRLPRPRPRPKDEPRP, the “shrunken log2 fold change” value is 0.363.

On to RRIRNRPPRLPRPRPRPHKNPRP, for which the “shrunken log2 fold change” value is -0.237.

Take RRIRYRPPRLPRPRPRPYRCPRP: the “shrunken log2 fold change” value was 0.0155.

Regarding RRIRPRPPRLPRPRPRPPLGPRP, the “shrunken log2 fold change” value came out at 0.585.

As for RRIRPRPPRLPRPRPRPSGSPRP, the “shrunken log2 fold change” value is 0.0191.

RRIRERPPRLPRPRPRPKTWPRP: the “shrunken log2 fold change” value is -0.104.

Regarding RRIRLRPPRLPRPRPRPNNLPRP, the “shrunken log2 fold change” value is -0.177.

With RRIRFRPPRLPRPRPRPMDSPRP, the “shrunken log2 fold change” value was -0.398.

Consider RRIRKRPPRLPRPRPRPGEYPRP, for which the “shrunken log2 fold change” value was found to be 0.156.

For RRIRMRPPRLPRPRPRPIWMPRP, the “shrunken log2 fold change” value is -0.101.

Take RRIRQRPPRLPRPRPRPPSSPRP: the “shrunken log2 fold change” value came to 0.0251.

RRIRLRPPRLPRPRPRPFRAPRP: the “shrunken log2 fold change” value was determined as 0.113.

For the sequence RRIRRRPPRLPRPRPRPTDVPRP, the “shrunken log2 fold change” value was -0.0348.

RRIRIRPPRLPRPRPRPVDWPRP: the “shrunken log2 fold change” value is -0.0226.

Take RRIRNRPPRLPRPRPRPKAQPRP: the “shrunken log2 fold change” value is 0.0241.

As to RRIRLRPPRLPRPRPRPCDEPRP, the “shrunken log2 fold change” value is -0.0824.

For RRIRPRPPRLPRPRPRPHQVPRP, the “shrunken log2 fold change” value turned out to be 0.341.

For the sequence RRIRTRPPRLPRPRPRPLRFPRP, the “shrunken log2 fold change” value was 0.742.

For RRIRLRPPRLPRPRPRPVLDPRP, the “shrunken log2 fold change” value is -0.366.

For the sequence RRIRARPPRLPRPRPRPRCPPRP, the “shrunken log2 fold change” value was 0.248.

As to RRIRGRPPRLPRPRPRPMNGPRP, the “shrunken log2 fold change” value stood at 0.00709.

As for RRIRHRPPRLPRPRPRPEVWPRP, the “shrunken log2 fold change” value stood at 0.714.

As for RRIRYRPPRLPRPRPRPHGIPRP, the “shrunken log2 fold change” value was found to be 0.0191.

Take RRIRYRPPRLPRPRPRPSCQPRP: the “shrunken log2 fold change” value was -0.296.

For the sequence RRIRFRPPRLPRPRPRPHDHPRP, the “shrunken log2 fold change” value was -0.508.

RRIRKRPPRLPRPRPRPSQGPRP: the “shrunken log2 fold change” value is 0.0922.

In the case of RRIRPRPPRLPRPRPRPRNKPRP, the “shrunken log2 fold change” value is -0.136.

On to RRIRSRPPRLPRPRPRPYQHPRP, for which the “shrunken log2 fold change” value was -0.934.

On to RRIRVRPPRLPRPRPRPVRSPRP, for which the “shrunken log2 fold change” value was determined as 0.522.

In the case of RRIRGRPPRLPRPRPRPRLIPRP, the “shrunken log2 fold change” value came out at 0.166.

For RRIRTRPPRLPRPRPRPVDKPRP, the “shrunken log2 fold change” value was -0.362.

On to RRIRFRPPRLPRPRPRPINAPRP, for which the “shrunken log2 fold change” value turned out to be 0.00976.

As for RRIRWRPPRLPRPRPRPWNTPRP, the “shrunken log2 fold change” value is -0.195.

Regarding RRIRRRPPRLPRPRPRPRRLPRP, the “shrunken log2 fold change” value was determined as 0.54.

With RRIRYRPPRLPRPRPRPVPTPRP, the “shrunken log2 fold change” value was -0.0167.

In the case of RRIRCRPPRLPRPRPRPLMFPRP, the “shrunken log2 fold change” value was -0.433.

Regarding RRIRLRPPRLPRPRPRPFNLPRP, the “shrunken log2 fold change” value was -0.596.

On to RRIRNRPPRLPRPRPRPKQIPRP, for which the “shrunken log2 fold change” value is -0.294.

Turning to RRIRIRPPRLPRPRPRPQIMPRP, the “shrunken log2 fold change” value is -1.16.

Regarding RRIRGRPPRLPRPRPRPLALPRP, the “shrunken log2 fold change” value worked out at 0.665.

On to RRIRRRPPRLPRPRPRPNKLPRP, for which the “shrunken log2 fold change” value was -0.138.

On to RRIRRRPPRLPRPRPRPLMEPRP, for which the “shrunken log2 fold change” value was -0.0263.

For RRIRKRPPRLPRPRPRPGKSPRP, the “shrunken log2 fold change” value came out at 0.0157.

Regarding RRIRCRPPRLPRPRPRPPCQPRP, the “shrunken log2 fold change” value worked out at 0.0248.

For the sequence RRIRVRPPRLPRPRPRPETKPRP, the “shrunken log2 fold change” value amounted to 0.242.

Take RRIRCRPPRLPRPRPRPYKLPRP: the “shrunken log2 fold change” value is -0.898.
